Reference: article PMC6816459 (Methods in molecular biology (Clifton, N.J.), 2019)

Biological target: the molecule itself

B1: C. elegans Vps4 (enzyme, UniProt Q9BL83 1-430, looked up)
chain: MSVPALQKAIELVTKATEEDTAGRYDQALRLYDQAIEYFLHAIKYESQGDKQRNAIRDKVGQYLNRAEQIKTHLKDGKTQKKPVKDGKDDSDEDEDKKKFQDKLSGAIVMEKPNVKWTDIAGLEGAKEALKEAVILPIKFPQLFTGNRKPWQGILLFGPPGTGKSYIAKAVATEAGESTFFSISSSDLMSKWLGESEKLVKNLFALAREHKPSIIFIDEIDSLCSARSDNESESARRIKTEFMVQMQGVGLNNDGILVLGATNIPWILDSAIRRRFEKRIYIPLPDIHARKEMFRIDVGKNYNTLTDQDFKVLAERCEGYSGYDISILVKDALMQPVRRVQSATHFKHVSGPSPKDPNVIAHDLLTPCSPGDPHAIAMNWLDVPGDKLANPPLSMQDISRSLASVKPTVNNTDLDRLEAFKNDFGQDGQE
Question: With B1 as the protein, how does the “stoichiometry N” value read?
Answer: The value was 6.
